Measurements taken from patent publication US20250277054A1 (WUXI BIOLOGICS IRELAND, published 2025).

Key:
[1] = target: T1, human PSMA on human prostate cancer cells (LNCaP, C4-2, 22Rv1) (human, UniProt Q04609 1-750); test: flow cytometry on LNCaP cells
T1 construct: whole, on cells; also called human PSMA-expressing LNCaP cells; C4-2 (PSMA High)
Experimental: After washing the cells twice with 1×PBS/1% BSA, Alexa fluor 647-labeled goat anti-human antibody (1:500 diluted with 1×PBS/1% BSA) was added into the cells and incubated in a refrigerator set to 4° C. for 0.5 hour in the dark. After washing the cells twice with 1×PBS/1% BSA, the mean fluorescence intensity (MFI) of the cells was measured by a flow cytometer and analyzed by FLOWJO. The binding EC50 was calculated by GraphPad Prism through plotting antibody concentration (x-axis) versus MFI (y-axis) and analyzing as: Nonlinear regression (curve fit)-log (agonist) vs. response-Variable slope (four parameters).

[2] = target: T2, Mouse PSMA.ECD.His (Acro) (mouse, UniProt O35409 45-752); test: ELISA, coated mouse PSMA protein (His tag)
T2 construct: extracellular domain; Bought protein with His tag; also called mouse PSMA protein (His tag); Mouse PSMA/FOLH1 protein, His tag
T2 sequence (O35409 45-752): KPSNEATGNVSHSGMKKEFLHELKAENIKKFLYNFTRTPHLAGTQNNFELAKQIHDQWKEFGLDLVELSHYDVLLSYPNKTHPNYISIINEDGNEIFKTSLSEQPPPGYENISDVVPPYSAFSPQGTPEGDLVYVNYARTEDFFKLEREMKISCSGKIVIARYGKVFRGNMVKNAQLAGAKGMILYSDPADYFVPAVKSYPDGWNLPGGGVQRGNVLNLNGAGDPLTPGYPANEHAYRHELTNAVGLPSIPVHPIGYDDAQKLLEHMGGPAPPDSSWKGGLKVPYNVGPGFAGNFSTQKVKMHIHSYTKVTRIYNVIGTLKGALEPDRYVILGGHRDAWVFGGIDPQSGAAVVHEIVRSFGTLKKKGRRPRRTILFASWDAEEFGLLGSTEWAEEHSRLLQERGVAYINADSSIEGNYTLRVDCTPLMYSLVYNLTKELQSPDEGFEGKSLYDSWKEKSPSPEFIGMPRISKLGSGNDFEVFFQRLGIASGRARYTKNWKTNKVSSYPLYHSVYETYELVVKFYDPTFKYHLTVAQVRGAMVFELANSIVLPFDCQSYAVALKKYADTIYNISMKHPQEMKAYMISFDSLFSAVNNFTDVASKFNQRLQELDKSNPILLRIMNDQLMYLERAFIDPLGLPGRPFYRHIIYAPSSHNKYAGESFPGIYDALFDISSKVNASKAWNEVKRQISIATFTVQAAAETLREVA
Experimental: Briefly, 2 μg/mL mouse PSMA protein (His tag) were coated onto well in ELISA plate in coating buffer for 16 hours in a refrigerator set to 4° C. After washing plate once time with 1×PBST, 200 μL/well 2% BSA were added into wells and incubated for one hour at ambient temperature. […] After washing six times with 1×PBST, 100 μL/well of TMB substrate solution were added into wells and incubated for 5 minutes in dark and then 100 μL/well of 2M HCL were added into wells to stop the reaction. The relative light unit (RLU) were measured at OD450 and OD540 by SPECTRAMAX M5E. EC50 was determined as described above.

[3] = target: T3, Human PSMA.ECD.His (Acro) (human, UniProt Q04609 44-750); test: ELISA, human PSMA ECD captured by anti-His antibody
T3 construct: extracellular domain; Bought protein with His tag; also called human PSMA ECD protein; Human PSMA/FOLH1 protein, His tag
T3 sequence (Q04609 44-750): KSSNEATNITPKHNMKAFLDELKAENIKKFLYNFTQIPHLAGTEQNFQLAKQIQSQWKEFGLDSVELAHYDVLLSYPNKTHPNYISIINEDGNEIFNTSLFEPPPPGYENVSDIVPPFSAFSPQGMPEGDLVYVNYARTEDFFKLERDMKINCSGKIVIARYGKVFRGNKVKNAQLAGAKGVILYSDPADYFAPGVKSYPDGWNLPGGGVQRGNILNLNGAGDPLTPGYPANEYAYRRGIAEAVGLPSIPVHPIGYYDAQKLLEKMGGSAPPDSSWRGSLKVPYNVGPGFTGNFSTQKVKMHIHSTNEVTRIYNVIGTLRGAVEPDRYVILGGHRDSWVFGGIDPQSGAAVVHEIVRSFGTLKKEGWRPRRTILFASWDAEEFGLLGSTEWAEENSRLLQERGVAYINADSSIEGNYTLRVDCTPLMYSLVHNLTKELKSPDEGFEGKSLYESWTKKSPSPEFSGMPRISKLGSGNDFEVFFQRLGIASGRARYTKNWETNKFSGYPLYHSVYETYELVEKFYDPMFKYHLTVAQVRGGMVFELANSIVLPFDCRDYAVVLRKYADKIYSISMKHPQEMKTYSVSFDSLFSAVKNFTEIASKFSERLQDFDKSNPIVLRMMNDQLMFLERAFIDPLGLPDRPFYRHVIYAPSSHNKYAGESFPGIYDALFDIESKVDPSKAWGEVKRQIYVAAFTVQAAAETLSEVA
Experimental: Plate was pre-coated with 1 μg/mL THE™ His Tag Antibody overnight in a refrigerator set to 4° C. After blocking with 200 μL of 1×PBS/2% BSA for 1 hour, the plates were washed with 1×PBST for three times, then 0.5 g/mL human PSMA ECD protein diluted in 1×PBS/2% BSA was added in a volume of 50 μL/well to the plate and incubated for 1 hour at ambient temperature. […] After washing the plates with 1×PBST for three times, 50 μL/well of HRP-labeled goat anti-human IgG antibody (1:5000 diluted in 1×PBS/2% BSA) were added into the plate and incubated for 1 hour at ambient temperature. After washing the plates with 1×PBST for six times, the color was developed by dispensing 50 μL/well of TMB substrate for 4-8 minutes, and then the reaction was stopped by adding 50 μL/well of 2M HCl. The absorbance was read at 450 nm using a microplate reader. The binding EC50 was calculated by GraphPad Prism through plotting antibody concentration (x-axis) versus OD450 value (y-axis) and analyzing as: Nonlinear regression (curve fit)-log (agonist) vs. response-Variable slope (four parameters).

[4] = target: T4, full-length cynomolgus PSMA on Flp-in CHO cells (WBP3xx042-FlpinCHO.cPro1.B7) (cynomolgus, UniProt A0A2K5VNZ0 1-750); test: flow cytometry on cynomolgus PSMA-expressing CHO cells
T4 construct: whole, on cells; also called Cyno PSMA+ CHO cells; FlpInCHO-cyno PSMA
Experimental: After washing the cells twice with 1×PBS/1% BSA, Alexa fluor 647-labeled goat anti-human antibody (1:500 diluted with 1×PBS/1% BSA) was added into the cells and incubated in a refrigerator set to 4° C. for 0.5 hour in the dark. After washing the cells twice with 1×PBS/1% BSA, the mean fluorescence intensity (MFI) of the cells was measured by a flow cytometer and analyzed by FLOWJO.

[5] = target: T5, Cyno PSMA.ECD.His (Acro) (cynomolgus, UniProt A0A2K5VNZ0 44-750); test: ELISA, cynomolgus PSMA ECD captured by anti-His antibody
T5 construct: extracellular domain; Bought protein with His tag; also called cynomolgus PSMA ECD protein; Cynomolgus PSMA/FOLH1 protein, His tag
Experimental: Plate was pre-coated with 1 μg/mL THETM His Tag Antibody overnight in a refrigerator set to 4° C. After blocking with 200 μL of 1×PBS/2% BSA for 1 hour, the plates were washed with 1×PBST for three times, then 0.5 μg/mL cynomolgus PSMA ECD protein diluted in 1×PBS/2% BSA was added in a volume of 50 μL/well to the plate and incubated for 1 hour at ambient temperature. […] After washing the plates with 1×PBST for three times, 50 μL/well of HRP-labeled goat anti-human IgG antibody (1:5000 diluted in 1×PBS/2% BSA) were added into the plate and incubated for 1 hour at ambient temperature. After washing the plates with 1×PBST for six times, the color was developed by dispensing 50 μL/well of TMB substrate for 4-8 minutes, and then the reaction was stopped by adding 50 μL/well of 2M HCl. The absorbance was read at 450 nm using a microplate reader. EC50 was determined as described above.

[6] = target: T5, Cyno PSMA.ECD.His (Acro); test: SPR (Biacore 8K), antibody captured by anti-human IgG Fc, PSMA injected, 1:1 model
Experimental: (§1) Each antibody was captured on an anti-human IgG Fc antibody immobilized CM5 sensor chip (Cytiva). Human and cynomolgus PSMA at different concentrations were injected over the sensor chip at a flow rate of 30 μL/min for an association phase of 120-180 s, followed by 600-3600 s dissociation. The chip was regenerated by 10 mM glycine (pH 1.5) after each binding cycle.
(§2) The sensorgrams of blank surface and buffer channel were subtracted from the test sensorgrams. The experimental data was fitted by 1:1 binding model. Molecular weight of 81.4 and 82.7 kDa were used to calculate the molar concentration of human and cynomolgus PSMA.

[7] = target: T3, Human PSMA.ECD.His (Acro); test: as above
Experimental: as §1, §2

T1 sequence (Q04609 whole entry): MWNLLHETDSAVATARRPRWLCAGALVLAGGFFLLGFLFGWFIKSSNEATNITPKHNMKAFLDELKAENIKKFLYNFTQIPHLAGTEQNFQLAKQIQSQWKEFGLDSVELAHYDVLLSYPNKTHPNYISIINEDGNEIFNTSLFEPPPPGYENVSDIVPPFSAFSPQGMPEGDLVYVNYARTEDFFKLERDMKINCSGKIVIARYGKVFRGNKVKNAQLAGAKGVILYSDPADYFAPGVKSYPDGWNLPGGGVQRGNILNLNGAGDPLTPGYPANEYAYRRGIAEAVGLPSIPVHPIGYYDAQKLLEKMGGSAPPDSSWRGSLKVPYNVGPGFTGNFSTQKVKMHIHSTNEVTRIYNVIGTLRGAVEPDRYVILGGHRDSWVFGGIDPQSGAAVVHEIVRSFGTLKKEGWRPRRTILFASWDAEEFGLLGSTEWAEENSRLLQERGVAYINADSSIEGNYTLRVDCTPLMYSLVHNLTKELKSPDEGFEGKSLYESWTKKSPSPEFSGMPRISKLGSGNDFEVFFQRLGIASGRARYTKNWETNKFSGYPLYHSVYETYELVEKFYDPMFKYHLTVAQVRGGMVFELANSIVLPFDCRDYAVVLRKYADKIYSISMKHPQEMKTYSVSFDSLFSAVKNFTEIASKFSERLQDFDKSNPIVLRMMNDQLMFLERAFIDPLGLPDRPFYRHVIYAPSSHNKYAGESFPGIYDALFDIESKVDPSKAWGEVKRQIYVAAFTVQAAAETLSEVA

B1: W305042-1.135.2-uIgG1L (antibody, V domains shown)
VH: EVQLVQSGAEVKKPGESLKISCKASGYSFTTYWIGWVRQMPGKGLELMGIIYPYDSDTRYSPSFQGQVTISADKSINTAYLQWSSLKASDTAMYYCARITGGYLFDYWGQGILVTVSS
VL: QSALTQPPSASGSPGQSVTISCTGTSSDVGGYNYVSWYQQHPGKAPKLMIYEVTKRPSGVPDRFSGSKSGNTASLTVSGLQAEDEADYYCTSYAGSNKYVFGTGTKVTVLG
notes: Fully human anti-PSMA monoclonal antibody, human IgG1 with lambda light chain; also called WBP305042; W305042-1.135.2-uIgGIL
- EC50 [1]: 0.25 nM
- EC50 [2]: 0.026 nM
- EC50 [3]: 0.017 nM
- EC50 [4]: 2.25 nM
- EC50 [5]: 0.006 nM
- Kd [6]: 2.84 nM
- koff [6]: 0.000584 s⁻¹
- kon [6]: 206000 M⁻¹ s⁻¹
- Kd [7]: 0.0294 nM
- koff [7]: 1.12e-05 s⁻¹
- kon [7]: 381000 M⁻¹ s⁻¹
